# Target: T1, CD3 epsilon homodimer protein (UniProt P07766 23-126)
# T1 construct: immobilized on Sensor chip CM4 by amine coupling; also called CD3 (CD3 epsilon)
# Experiment: SPR (Biacore T200), CD3 epsilon homodimer on CM4 chip, one-arm antibody as analyte, 25 C;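 further: homodimer attached to the sensor surface via amine coupling, HBS-EP+ used as running buffer during binding runs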
# T1 sequence (P07766 23-126): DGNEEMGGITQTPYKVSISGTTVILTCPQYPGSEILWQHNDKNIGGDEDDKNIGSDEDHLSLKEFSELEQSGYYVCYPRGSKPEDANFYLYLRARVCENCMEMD
row,Binder,ratio of amounts bound (altered form / CE115HA000)
1,"CE115HA000 S52cV one-arm antibody (antibody, human IgG1, kappa, L234A L235A, N297A, name in Kabat numbering) heavy: QVQLVESGGGVVQPGRSLRLSCAASGFTFSNAWMHWVRQAPGKGLEWVAQIKAKVNNYATYYAESVKGRFTISRDDSKNSLYLQMNSLKTEDTAVYYCRYVHYGAYYGVDAWGQGTTVTVSSASTKGPSVFPLAPSSKSTSGGTAALGCLVKDYFPEPVTVSWNSGALTSGVHTFPAVLQSSGLYSLSSVVTVPSSSLGTQTYICNVNHKPSNTKVDKKVEPKSCDKTHTCPPCPAPEAAGGPSVFLFPPKPKDTLMISRTPEVTCVVVDVSHEDPEVKFNWYVDGVEVHNAKTKPREEQYASTYRVVSVLTVLHQDWLNGKEYKCKVSNKALPAPIEKTISKAKGQPREPQVYTLPPSRCELTKNQVSLSCAVKGFYPSDIAVEWESNGQPENNYKTTPPVLDSDGSFFLVSKLTVDKSRWQQGNVFSCSVMHEALHNHYTQKSLSLSPDYKDDDDK EPKSSDKTHTCPPCPAPELLGGPSVFLFPPKPKDTLMISRTPEVTCVVVDVSHEDPEVKFNWYVDGVEVHNAKTKPREEQYNSTYRVVSVLTVLHQDWLNGKEYKCKVSNKALPAPIEKTISKAKGQPREPQVCTLPPSRDELTKNQVSLWCLVKGFYPSDIAVEWESNGQPENNYKTTPPVLDSDGSFFLYSKLTVDKSRWQQGNVFSCSVMHEALHNRYTQKSLSLSP light: DIVMTQSPLSLPVTPGEPASISCRSSQSLVHSNRNTYLHWYQQKPGQAPRLLIYKVSNRFSGVPDRFSGSGSGTDFTLKISRVEAEDVGVYYCGQGTQVPYTFGQGTKLEIKRTVAAPSVFIFPPSDEQLKSGTASVVCLLNNFYPREAKVQWKVDNALQSGNSQESVTEQDSKDSTYSLSSTLTLSKADYEKHKVYACEVTHQGLSSPVTKSFNRGEC",0.93
2,"CE115HA000 S52cY one-arm antibody (antibody, human IgG1, kappa, L234A L235A, N297A, name in Kabat numbering) heavy: QVQLVESGGGVVQPGRSLRLSCAASGFTFSNAWMHWVRQAPGKGLEWVAQIKAKYNNYATYYAESVKGRFTISRDDSKNSLYLQMNSLKTEDTAVYYCRYVHYGAYYGVDAWGQGTTVTVSSASTKGPSVFPLAPSSKSTSGGTAALGCLVKDYFPEPVTVSWNSGALTSGVHTFPAVLQSSGLYSLSSVVTVPSSSLGTQTYICNVNHKPSNTKVDKKVEPKSCDKTHTCPPCPAPEAAGGPSVFLFPPKPKDTLMISRTPEVTCVVVDVSHEDPEVKFNWYVDGVEVHNAKTKPREEQYASTYRVVSVLTVLHQDWLNGKEYKCKVSNKALPAPIEKTISKAKGQPREPQVYTLPPSRCELTKNQVSLSCAVKGFYPSDIAVEWESNGQPENNYKTTPPVLDSDGSFFLVSKLTVDKSRWQQGNVFSCSVMHEALHNHYTQKSLSLSPDYKDDDDK EPKSSDKTHTCPPCPAPELLGGPSVFLFPPKPKDTLMISRTPEVTCVVVDVSHEDPEVKFNWYVDGVEVHNAKTKPREEQYNSTYRVVSVLTVLHQDWLNGKEYKCKVSNKALPAPIEKTISKAKGQPREPQVCTLPPSRDELTKNQVSLWCLVKGFYPSDIAVEWESNGQPENNYKTTPPVLDSDGSFFLYSKLTVDKSRWQQGNVFSCSVMHEALHNRYTQKSLSLSP light: DIVMTQSPLSLPVTPGEPASISCRSSQSLVHSNRNTYLHWYQQKPGQAPRLLIYKVSNRFSGVPDRFSGSGSGTDFTLKISRVEAEDVGVYYCGQGTQVPYTFGQGTKLEIKRTVAAPSVFIFPPSDEQLKSGTASVVCLLNNFYPREAKVQWKVDNALQSGNSQESVTEQDSKDSTYSLSSTLTLSKADYEKHKVYACEVTHQGLSSPVTKSFNRGEC",1.11
3,"CE115HA000 S62D one-arm antibody (antibody, human IgG1, kappa, L234A L235A, N297A, name in Kabat numbering) heavy: QVQLVESGGGVVQPGRSLRLSCAASGFTFSNAWMHWVRQAPGKGLEWVAQIKAKSNNYATYYAEDVKGRFTISRDDSKNSLYLQMNSLKTEDTAVYYCRYVHYGAYYGVDAWGQGTTVTVSSASTKGPSVFPLAPSSKSTSGGTAALGCLVKDYFPEPVTVSWNSGALTSGVHTFPAVLQSSGLYSLSSVVTVPSSSLGTQTYICNVNHKPSNTKVDKKVEPKSCDKTHTCPPCPAPEAAGGPSVFLFPPKPKDTLMISRTPEVTCVVVDVSHEDPEVKFNWYVDGVEVHNAKTKPREEQYASTYRVVSVLTVLHQDWLNGKEYKCKVSNKALPAPIEKTISKAKGQPREPQVYTLPPSRCELTKNQVSLSCAVKGFYPSDIAVEWESNGQPENNYKTTPPVLDSDGSFFLVSKLTVDKSRWQQGNVFSCSVMHEALHNHYTQKSLSLSPDYKDDDDK EPKSSDKTHTCPPCPAPELLGGPSVFLFPPKPKDTLMISRTPEVTCVVVDVSHEDPEVKFNWYVDGVEVHNAKTKPREEQYNSTYRVVSVLTVLHQDWLNGKEYKCKVSNKALPAPIEKTISKAKGQPREPQVCTLPPSRDELTKNQVSLWCLVKGFYPSDIAVEWESNGQPENNYKTTPPVLDSDGSFFLYSKLTVDKSRWQQGNVFSCSVMHEALHNRYTQKSLSLSP light: DIVMTQSPLSLPVTPGEPASISCRSSQSLVHSNRNTYLHWYQQKPGQAPRLLIYKVSNRFSGVPDRFSGSGSGTDFTLKISRVEAEDVGVYYCGQGTQVPYTFGQGTKLEIKRTVAAPSVFIFPPSDEQLKSGTASVVCLLNNFYPREAKVQWKVDNALQSGNSQESVTEQDSKDSTYSLSSTLTLSKADYEKHKVYACEVTHQGLSSPVTKSFNRGEC",0.92
4,"CE115HA000 S62E one-arm antibody (antibody, human IgG1, kappa, L234A L235A, N297A, name in Kabat numbering) heavy: QVQLVESGGGVVQPGRSLRLSCAASGFTFSNAWMHWVRQAPGKGLEWVAQIKAKSNNYATYYAEEVKGRFTISRDDSKNSLYLQMNSLKTEDTAVYYCRYVHYGAYYGVDAWGQGTTVTVSSASTKGPSVFPLAPSSKSTSGGTAALGCLVKDYFPEPVTVSWNSGALTSGVHTFPAVLQSSGLYSLSSVVTVPSSSLGTQTYICNVNHKPSNTKVDKKVEPKSCDKTHTCPPCPAPEAAGGPSVFLFPPKPKDTLMISRTPEVTCVVVDVSHEDPEVKFNWYVDGVEVHNAKTKPREEQYASTYRVVSVLTVLHQDWLNGKEYKCKVSNKALPAPIEKTISKAKGQPREPQVYTLPPSRCELTKNQVSLSCAVKGFYPSDIAVEWESNGQPENNYKTTPPVLDSDGSFFLVSKLTVDKSRWQQGNVFSCSVMHEALHNHYTQKSLSLSPDYKDDDDK EPKSSDKTHTCPPCPAPELLGGPSVFLFPPKPKDTLMISRTPEVTCVVVDVSHEDPEVKFNWYVDGVEVHNAKTKPREEQYNSTYRVVSVLTVLHQDWLNGKEYKCKVSNKALPAPIEKTISKAKGQPREPQVCTLPPSRDELTKNQVSLWCLVKGFYPSDIAVEWESNGQPENNYKTTPPVLDSDGSFFLYSKLTVDKSRWQQGNVFSCSVMHEALHNRYTQKSLSLSP light: DIVMTQSPLSLPVTPGEPASISCRSSQSLVHSNRNTYLHWYQQKPGQAPRLLIYKVSNRFSGVPDRFSGSGSGTDFTLKISRVEAEDVGVYYCGQGTQVPYTFGQGTKLEIKRTVAAPSVFIFPPSDEQLKSGTASVVCLLNNFYPREAKVQWKVDNALQSGNSQESVTEQDSKDSTYSLSSTLTLSKADYEKHKVYACEVTHQGLSSPVTKSFNRGEC",0.92

# Second part, the binder after the results:
row,ratio of amounts bound (altered form / CE115HA000),Binder
1,1.19,"CE115HA000 S62K one-arm antibody (antibody, human IgG1, kappa, L234A L235A, N297A, name in Kabat numbering) heavy: QVQLVESGGGVVQPGRSLRLSCAASGFTFSNAWMHWVRQAPGKGLEWVAQIKAKSNNYATYYAEKVKGRFTISRDDSKNSLYLQMNSLKTEDTAVYYCRYVHYGAYYGVDAWGQGTTVTVSSASTKGPSVFPLAPSSKSTSGGTAALGCLVKDYFPEPVTVSWNSGALTSGVHTFPAVLQSSGLYSLSSVVTVPSSSLGTQTYICNVNHKPSNTKVDKKVEPKSCDKTHTCPPCPAPEAAGGPSVFLFPPKPKDTLMISRTPEVTCVVVDVSHEDPEVKFNWYVDGVEVHNAKTKPREEQYASTYRVVSVLTVLHQDWLNGKEYKCKVSNKALPAPIEKTISKAKGQPREPQVYTLPPSRCELTKNQVSLSCAVKGFYPSDIAVEWESNGQPENNYKTTPPVLDSDGSFFLVSKLTVDKSRWQQGNVFSCSVMHEALHNHYTQKSLSLSPDYKDDDDK EPKSSDKTHTCPPCPAPELLGGPSVFLFPPKPKDTLMISRTPEVTCVVVDVSHEDPEVKFNWYVDGVEVHNAKTKPREEQYNSTYRVVSVLTVLHQDWLNGKEYKCKVSNKALPAPIEKTISKAKGQPREPQVCTLPPSRDELTKNQVSLWCLVKGFYPSDIAVEWESNGQPENNYKTTPPVLDSDGSFFLYSKLTVDKSRWQQGNVFSCSVMHEALHNRYTQKSLSLSP light: DIVMTQSPLSLPVTPGEPASISCRSSQSLVHSNRNTYLHWYQQKPGQAPRLLIYKVSNRFSGVPDRFSGSGSGTDFTLKISRVEAEDVGVYYCGQGTQVPYTFGQGTKLEIKRTVAAPSVFIFPPSDEQLKSGTASVVCLLNNFYPREAKVQWKVDNALQSGNSQESVTEQDSKDSTYSLSSTLTLSKADYEKHKVYACEVTHQGLSSPVTKSFNRGEC"
2,1,"CE115HA000 S62P one-arm antibody (antibody, human IgG1, kappa, L234A L235A, N297A, name in Kabat numbering) heavy: QVQLVESGGGVVQPGRSLRLSCAASGFTFSNAWMHWVRQAPGKGLEWVAQIKAKSNNYATYYAEPVKGRFTISRDDSKNSLYLQMNSLKTEDTAVYYCRYVHYGAYYGVDAWGQGTTVTVSSASTKGPSVFPLAPSSKSTSGGTAALGCLVKDYFPEPVTVSWNSGALTSGVHTFPAVLQSSGLYSLSSVVTVPSSSLGTQTYICNVNHKPSNTKVDKKVEPKSCDKTHTCPPCPAPEAAGGPSVFLFPPKPKDTLMISRTPEVTCVVVDVSHEDPEVKFNWYVDGVEVHNAKTKPREEQYASTYRVVSVLTVLHQDWLNGKEYKCKVSNKALPAPIEKTISKAKGQPREPQVYTLPPSRCELTKNQVSLSCAVKGFYPSDIAVEWESNGQPENNYKTTPPVLDSDGSFFLVSKLTVDKSRWQQGNVFSCSVMHEALHNHYTQKSLSLSPDYKDDDDK EPKSSDKTHTCPPCPAPELLGGPSVFLFPPKPKDTLMISRTPEVTCVVVDVSHEDPEVKFNWYVDGVEVHNAKTKPREEQYNSTYRVVSVLTVLHQDWLNGKEYKCKVSNKALPAPIEKTISKAKGQPREPQVCTLPPSRDELTKNQVSLWCLVKGFYPSDIAVEWESNGQPENNYKTTPPVLDSDGSFFLYSKLTVDKSRWQQGNVFSCSVMHEALHNRYTQKSLSLSP light: DIVMTQSPLSLPVTPGEPASISCRSSQSLVHSNRNTYLHWYQQKPGQAPRLLIYKVSNRFSGVPDRFSGSGSGTDFTLKISRVEAEDVGVYYCGQGTQVPYTFGQGTKLEIKRTVAAPSVFIFPPSDEQLKSGTASVVCLLNNFYPREAKVQWKVDNALQSGNSQESVTEQDSKDSTYSLSSTLTLSKADYEKHKVYACEVTHQGLSSPVTKSFNRGEC"
